Results taken from publication PMC11773018.

What was measured:
human factor H (human) [1] = biological target: human factor H (human) (UniProt P08603); assay: SPR; human FH conjugated to a CM5 chip; untreated (PBS) untagged CspZ at one concentration (2 uM in methods and legend, 1 uM in the table's footnote) flowed in PBS at 30 ul/min, 25 C, Biacore T200, 1:1 Langmuir model
human factor H (human) [2] = biological target: human factor H (human) (UniProt P08603); assay: SPR; human FH conjugated to a CM5 chip; untreated (PBS) untagged CspZ at one concentration (2 uM in methods and legend, 1 uM in the table's footnote) flowed in PBS at 100 ul/min, 25 C, Biacore T200, 1:1 Langmuir model
[3] = biological target: human complement factor H (human) (UniProt P08603); assay: SPR; human FH conjugated to a CM5 chip; untagged CspZ treated with 100 μM EDTA and dialysed against PBS, flowed in EDTA-treated PBS (100 μM) at 10 μl/min, 25 °C; 1:1 Langmuir model
human factor H (human) [4] = biological target: human factor H (human) (UniProt P08603); assay: SPR; human FH conjugated to a CM5 chip; untreated (PBS) untagged CspZ at one concentration (2 uM in methods and legend, 1 uM in the table's footnote) flowed in PBS at 10 ul/min, 25 C, Biacore T200, 1:1 Langmuir model
human factor H (human) [5] = biological target: human factor H (human) (UniProt P08603); assay: SPR; human FH conjugated to a CM5 chip; untagged CspZ treated with 100 uM EDTA and dialysed against PBS, one concentration (2 uM in methods and legend, 1 uM in the table's footnote), flow rate 30 ul/min, 25 C, Biacore T200, 1:1 Langmuir model
human factor H (human) [6] = biological target: human factor H (human) (UniProt P08603); assay: SPR; human FH conjugated to a CM5 chip; untagged CspZ treated with 100 uM EDTA and dialysed against PBS, one concentration (2 uM in methods and legend, 1 uM in the table's footnote), flow rate 100 ul/min, 25 C, Biacore T200, 1:1 Langmuir model
human factor H (human) [7] = biological target: human factor H (human) (UniProt P08603); assay: SPR; human FH conjugated to a CM5 chip; untagged CspZ treated with 100 uM EDTA and dialysed against PBS, one concentration (2 uM in methods and legend, 1 uM in the table's footnote), flow rate 10 ul/min, 25 C, Biacore T200, 1:1 Langmuir model
[8] = biological target: human complement factor H (human) (UniProt P08603); assay: SPR; human FH conjugated to a CM5 chip; untreated untagged CspZ flowed in PBS at 10 μl/min, 25 °C; Biacore T200; 1:1 Langmuir model
[9] = biological target: human complement factor H (human) (UniProt P08603); assay: SPR; human FH conjugated to a CM5 chip; EDTA-treated, PBS-dialysed untagged CspZ then incubated with 100 μM zinc, flowed in zinc-treated PBS (100 μM) at 10 μl/min, 25 °C; 1:1 Langmuir model
human factor H (human) [10] = biological target: human factor H (human) (UniProt P08603); assay: SPR; human FH conjugated to a CM5 chip; EDTA-treated, PBS-dialysed untagged CspZB31 then treated with 100 uM zinc (EDTA-Zn), one concentration (2 uM in methods and legend, 1 uM in the table's footnote), flow rate 100 ul/min, 25 C, Biacore T200, 1:1 Langmuir model
human factor H (human) [11] = biological target: human factor H (human) (UniProt P08603); assay: SPR; human FH conjugated to a CM5 chip; EDTA-treated, PBS-dialysed untagged CspZB31 then treated with 100 uM zinc (EDTA-Zn), one concentration (2 uM in methods and legend, 1 uM in the table's footnote), flow rate 30 ul/min, 25 C, Biacore T200, 1:1 Langmuir model
human factor H (human) [12] = biological target: human factor H (human) (UniProt P08603); assay: SPR; human FH conjugated to a CM5 chip; EDTA-treated, PBS-dialysed untagged CspZB31 then treated with 100 uM zinc (EDTA-Zn), one concentration (2 uM in methods and legend, 1 uM in the table's footnote), flow rate 10 ul/min, 25 C, Biacore T200, 1:1 Langmuir model

Substance | Kd (human factor H (human) [1]) | koff (human factor H (human) [1]) | kon (human factor H (human) [1]) | Kd (human factor H (human) [2]) | koff (human factor H (human) [2]) | kon (human factor H (human) [2]) | Kd [3] | koff [3] | kon [3] | Kd (human factor H (human) [4]) | koff (human factor H (human) [4]) | kon (human factor H (human) [4]) | Kd (human factor H (human) [5]) | koff (human factor H (human) [5]) | kon (human factor H (human) [5]) | Kd (human factor H (human) [6]) | koff (human factor H (human) [6]) | kon (human factor H (human) [6]) | Kd (human factor H (human) [7]) | koff (human factor H (human) [7]) | further results
CspZ from Borrelia afzelii VS461, untagged (natural protein) | 0.38 µM | 0.004 s⁻¹ | 10800 M⁻¹ s⁻¹ | 0.34 µM | 0.003 s⁻¹ | 10500 M⁻¹ s⁻¹ | 0.47 µM | 0.0045 s⁻¹ | 10600 M⁻¹ s⁻¹ | 0.37 µM | 0.004 s⁻¹ | 10800 M⁻¹ s⁻¹ | 0.43 µM | 0.003 s⁻¹ | 9160 M⁻¹ s⁻¹ | 0.11 µM | 0.004 s⁻¹ | 11100 M⁻¹ s⁻¹ | 0.48 µM | 0.004 s⁻¹ | kon (human factor H (human) [7]): 10700 M⁻¹ s⁻¹; Kd [8]: 0.37 µM; koff [8]: 0.0034 s⁻¹; kon [8]: 9420 M⁻¹ s⁻¹
CspZ from Borrelia burgdorferi B408, untagged (natural protein) | 0.53 µM | 0.007 s⁻¹ | 13600 M⁻¹ s⁻¹ | 0.54 µM | 0.006 s⁻¹ | 13200 M⁻¹ s⁻¹ | 0.49 µM | 0.0071 s⁻¹ | 13900 M⁻¹ s⁻¹ | 0.55 µM | 0.008 s⁻¹ | 16500 M⁻¹ s⁻¹ | 0.48 µM | 0.006 s⁻¹ | 13600 M⁻¹ s⁻¹ | 0.5 µM | 0.008 s⁻¹ | 16700 M⁻¹ s⁻¹ | 0.48 µM | 0.007 s⁻¹ | kon (human factor H (human) [7]): 15700 M⁻¹ s⁻¹; Kd [8]: 0.54 µM; koff [8]: 0.0079 s⁻¹; kon [8]: 14100 M⁻¹ s⁻¹
CspZ from Borrelia burgdorferi B31, untagged (natural protein) | 0.27 µM | 0.017 s⁻¹ | 63200 M⁻¹ s⁻¹ | 0.25 µM | 0.017 s⁻¹ | 69200 M⁻¹ s⁻¹ | 3.05 µM | 0.012 s⁻¹ | 4370 M⁻¹ s⁻¹ | 0.23 µM | 0.016 s⁻¹ | 68800 M⁻¹ s⁻¹ | 3.73 µM | 0.021 s⁻¹ | 5790 M⁻¹ s⁻¹ | 3.67 µM | 0.017 s⁻¹ | 4830 M⁻¹ s⁻¹ | 3.37 µM | 0.012 s⁻¹ | Kd [9]: 0.68 µM; koff [9]: 0.035 s⁻¹; kon [9]: 51200 M⁻¹ s⁻¹; Kd (human factor H (human) [10]): 0.66 µM; koff (human factor H (human) [10]): 0.044 s⁻¹; kon (human factor H (human) [10]): 66600 M⁻¹ s⁻¹; Kd (human factor H (human) [11]): 0.57 µM; koff (human factor H (human) [11]): 0.034 s⁻¹; kon (human factor H (human) [11]): 61700 M⁻¹ s⁻¹; kon (human factor H (human) [7]): 4560 M⁻¹ s⁻¹; Kd [8]: 0.34 µM; koff [8]: 0.021 s⁻¹; kon [8]: 66600 M⁻¹ s⁻¹; Kd (human factor H (human) [12]): 0.62 µM; koff (human factor H (human) [12]): 0.037 s⁻¹; kon (human factor H (human) [12]): 60900 M⁻¹ s⁻¹
